This is an account of results in paper PMC6656757, “Structural insights into E1 recognition and the ubiquitin-conjugating activity of the E2 enzyme Cdc34” (Nature Communications, 2019).

The target of one experiment is T1, S. pombe Uba1 (S. pombe) (UniProt O94609).
T1 sequence: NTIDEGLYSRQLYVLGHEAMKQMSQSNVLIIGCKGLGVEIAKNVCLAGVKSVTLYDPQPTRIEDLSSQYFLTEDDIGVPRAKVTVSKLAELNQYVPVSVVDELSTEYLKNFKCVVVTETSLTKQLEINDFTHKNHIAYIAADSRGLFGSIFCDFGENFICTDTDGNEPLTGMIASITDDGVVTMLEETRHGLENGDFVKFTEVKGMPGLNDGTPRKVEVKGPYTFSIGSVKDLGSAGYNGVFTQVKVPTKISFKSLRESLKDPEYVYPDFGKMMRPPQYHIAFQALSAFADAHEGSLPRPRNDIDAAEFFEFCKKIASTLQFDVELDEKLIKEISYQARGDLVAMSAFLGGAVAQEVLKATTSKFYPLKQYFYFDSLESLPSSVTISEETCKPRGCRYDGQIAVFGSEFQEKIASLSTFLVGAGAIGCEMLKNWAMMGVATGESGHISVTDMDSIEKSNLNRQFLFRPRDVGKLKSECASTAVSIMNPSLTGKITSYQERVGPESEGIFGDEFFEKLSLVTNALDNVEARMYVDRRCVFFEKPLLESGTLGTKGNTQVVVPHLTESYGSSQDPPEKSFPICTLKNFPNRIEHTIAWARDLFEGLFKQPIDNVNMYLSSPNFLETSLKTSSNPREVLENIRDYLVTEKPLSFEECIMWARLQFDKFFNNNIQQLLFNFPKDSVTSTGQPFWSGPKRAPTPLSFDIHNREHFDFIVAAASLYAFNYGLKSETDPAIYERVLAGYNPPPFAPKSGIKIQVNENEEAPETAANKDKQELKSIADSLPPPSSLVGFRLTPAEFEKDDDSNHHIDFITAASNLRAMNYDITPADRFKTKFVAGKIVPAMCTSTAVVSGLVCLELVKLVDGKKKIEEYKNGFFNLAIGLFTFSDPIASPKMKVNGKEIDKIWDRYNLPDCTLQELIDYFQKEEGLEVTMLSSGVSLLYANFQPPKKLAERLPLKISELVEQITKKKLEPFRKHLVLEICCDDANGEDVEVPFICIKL

For experiment [1], the target named is T2, S. cerevisiae Uba1 (a.a. 11–1024) (S. cerevisiae, UniProt P22515 11-1024, in the crystal: disulfide bond between the Uba1 and Cdc34 catalytic cysteines (cross-link)).
T2 construct: residues 11-773 and 797-1024 built in the model; Cross-linked to Cdc34 only for the crystal; not cross-linked in the thioester transfer assays; also called ScUba1; E1; source: E. coli BL21 (DE3) Codon Plus, purified (Ni-NTA, gel filtration, MonoQ)
T2 sequence (P22515 11-1024): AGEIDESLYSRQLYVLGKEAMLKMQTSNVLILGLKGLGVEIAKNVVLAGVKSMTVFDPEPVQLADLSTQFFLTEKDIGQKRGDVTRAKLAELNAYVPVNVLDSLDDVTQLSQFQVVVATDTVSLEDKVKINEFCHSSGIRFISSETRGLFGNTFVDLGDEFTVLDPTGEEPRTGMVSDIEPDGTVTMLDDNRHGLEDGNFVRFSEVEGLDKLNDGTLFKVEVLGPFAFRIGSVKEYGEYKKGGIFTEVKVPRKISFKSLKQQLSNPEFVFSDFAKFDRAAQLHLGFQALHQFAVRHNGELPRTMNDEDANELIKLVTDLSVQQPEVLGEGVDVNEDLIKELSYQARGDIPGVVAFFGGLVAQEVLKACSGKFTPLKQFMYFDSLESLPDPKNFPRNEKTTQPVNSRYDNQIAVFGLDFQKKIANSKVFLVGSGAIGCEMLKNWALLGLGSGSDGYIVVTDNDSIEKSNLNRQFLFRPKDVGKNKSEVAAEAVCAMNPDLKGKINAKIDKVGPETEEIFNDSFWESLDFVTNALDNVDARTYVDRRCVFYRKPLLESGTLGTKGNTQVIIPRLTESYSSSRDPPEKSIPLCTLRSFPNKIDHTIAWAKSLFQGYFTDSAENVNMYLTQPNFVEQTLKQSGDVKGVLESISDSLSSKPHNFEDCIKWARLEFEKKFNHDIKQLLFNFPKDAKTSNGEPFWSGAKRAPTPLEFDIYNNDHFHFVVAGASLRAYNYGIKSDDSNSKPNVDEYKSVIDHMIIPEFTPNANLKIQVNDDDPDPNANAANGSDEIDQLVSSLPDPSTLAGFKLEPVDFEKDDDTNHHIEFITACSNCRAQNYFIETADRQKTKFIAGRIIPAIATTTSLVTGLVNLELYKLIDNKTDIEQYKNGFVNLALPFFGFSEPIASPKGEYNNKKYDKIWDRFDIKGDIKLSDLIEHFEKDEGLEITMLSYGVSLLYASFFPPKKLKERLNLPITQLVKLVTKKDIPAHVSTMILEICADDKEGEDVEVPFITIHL
Description: crystal structure; S. cerevisiae Uba1-Cdc34^Δdist held by a disulfide bond between the catalytic cysteines, mixed with Ub, 1 mM ATP and 5 mM MgCl2; crystals at 18 °C in 0.2 M ammonium sulfate, 25% PEG 3,350, 0.1 M Bis-Tris pH 6.5; 2.07 Å; two copies in the asymmetric unit. The following applies: both partners purified.

“Ubc4 K4S (from UniProt P46595 1-147) (enzyme)”: the E1-E2 thioester transfer assay: Ubc4 K4S (fold loss of activity) with S. pombe Uba1 (S. pombe) amounted to 2.

B1: Ubc15 K12A (enzyme)
chain: MPSSASEQLLRAQLKEIQKNPPQGFSVGLVDDKSIFEWEVMIIGPEDTLYEGGFFHATLSFPQDYPLMPPKMKFTTEIWHPNVHPNGEVCISILHPPGDDKYGYEDAGERWLPVHSPETILISVISMLSSPNDESPANIDAAKEFRENPQEFKKRVRRLVRRSIEMI
For the molecule B1, in the experiment with S. pombe Uba1 (S. pombe), the E1-E2 thioester transfer assay (50 nM E1, 60 s): Ubc15 K12A (fold loss of activity) is 5.

B2: S. cerevisiae Cdc34^Δdist (enzyme, UniProt P14682 1-195, looked up)
chain: MSSRKSTASSLLLRQYRELTDPKKAIPSFHIELEDDSNIFTWNIGVMVLNEDSIYHGGFFKAQMRFPEDFPFSPPQFRFTPAIYHPNVYRDGRLCISILHQSGDPMTDEPDAETWSPVQTVESVLISIVSLLEDPNINSPANVDAAVDYRKNPEQYKQRVKMEVERSKQDIPKGFIMPTSESAYISQSKLDEPES
modifications: in the crystal with Uba1: disulfide bond between the Uba1 and Cdc34 catalytic cysteines (cross-link)
notes: Cdc34, E2 ubiquitin-conjugating enzyme, S. cerevisiae; construct lacking CTD^dist (residues 196-295), made by a stop codon in Cdc34^FL; residues 3-102 and 112-181 built in the complex; Used here also as the wild-type Cdc34 of the thioester transfer assays with Uba1 mutants; also called ScCdc34^Δdist; source: E. coli BL21 (DE3) Codon Plus, purified
For B2, the binding result in experiment [1] is “binds”.
